Data published in US20260374812 (published 2026).
Where no end group is shown, it is not given here.

B1: NI-301.37F1 (antibody, V domains shown)
VH: QVQLQESGPGLVKPSETLSLTCSVSGGSIISRSSYWGWIRQPPGKGLEWIGGIYHSGNTYDNPSLKSRLTMSVDTSKNQFSLNLRSVTAADTAVYYCARIVPGGDAFDIWGQGTMVTVSS
VL: DIQMTQSPSSLSASVGDRVTIACRASQSVGTYLNWYQQKRGKAPKLLIFAASSLQSGVPSRFSGSGSGTDFTLTISSLQPEDFATYYCQQSYSSPPTFGQGTKVEIK
B2: NI-301.37F1 (antibody, V domains shown)
VH: B1 VH
VL: B1 VL
modifications: plasma-purified wild-type TTR, misfolded/aggregated at pH 3.0

What was measured:
TTR34-54cyc [1] = molecular target: T1, TTR34-54cyc (human, cyclic, disulfide between the two Cys in the poly-Gly linkers); assay: ELISA, ELISA-2
T1 sequence (chain, as listed by the source): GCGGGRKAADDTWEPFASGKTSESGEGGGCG

TTR40-49 = molecular target: T2, TTR40-49 (human); assay: ELISA
T2 chain: TWEPFASGKT

Biotin.TTR40-49 = molecular target: T3, Biotin.TTR40-49 (human, not fully specified (N-terminus)); assay: ELISA
T3 chain: TWEPFASGKT

TTR34-54cyc [2] = molecular target: T1, TTR34-54cyc; assay: ELISA, ELISA-1
mis.WT-TTR [3] = molecular target: mis.WT-TTR (human); assay: ELISA, ELISA-1
mis.WT-TTR [4] = molecular target: mis.WT-TTR (human); assay: ELISA, ELISA-2

| Binder | EC50 (TTR34-54cyc [1]) [pM] | binding result (TTR40-49) | binding result (Biotin.TTR40-49) | EC50 (TTR34-54cyc [2]) [pM] | EC50 (mis.WT-TTR [3]) [pM] | EC50 (mis.WT-TTR [4]) [pM] |
| --- | --- | --- | --- | --- | --- | --- |
| B1 | 660 | no binding | no binding | 27 | – | – |
| B2 | – | – | – | – | 338 | 8300 |
